# According to patent US20180155451A1 (published 2018):
# T1: FcγRIIa H (FcγRIIa, type H allotype, His at position 131), extracellular domain with C-terminal His tag (human, UniProt P12318 34-217)
# T1 construct: extracellular domain; Soluble receptor expressed in FreeStyle293 cells; analyte in Biacore; also called FcgRIIa H; 2aH; not shown: C-terminal His tag
# T1 sequence (looked up): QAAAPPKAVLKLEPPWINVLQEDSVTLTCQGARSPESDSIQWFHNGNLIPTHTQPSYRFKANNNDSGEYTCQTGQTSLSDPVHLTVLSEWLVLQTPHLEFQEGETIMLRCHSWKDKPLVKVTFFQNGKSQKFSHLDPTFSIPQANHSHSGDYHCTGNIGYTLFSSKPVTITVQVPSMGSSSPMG
# T2: FcγRIIb, extracellular domain with C-terminal His tag (human, UniProt P31994 43-217)
# T2 construct: extracellular domain; Soluble receptor expressed in FreeStyle293 cells; analyte in Biacore; also called FcgRIIb; 2b; not shown: C-terminal His tag
# T2 sequence (looked up): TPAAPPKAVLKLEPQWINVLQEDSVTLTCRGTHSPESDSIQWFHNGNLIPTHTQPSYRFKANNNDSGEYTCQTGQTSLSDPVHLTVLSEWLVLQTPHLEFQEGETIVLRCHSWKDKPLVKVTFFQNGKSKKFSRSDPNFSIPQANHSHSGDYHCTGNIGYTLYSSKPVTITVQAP
# T3: FcγRIIb (human, UniProt P31994 43-217)
# T3 construct: extracellular domain; also called FcgRIIb; 2b
# T3 sequence (looked up): T2 sequence (looked up)
# B1: GpH7-A5/GpH7-B3 variant E269_07I/GpL16-k0 (antibody, human IgG1, kappa)
# heavy 1: not shown
# heavy 2: not shown
# light: DIVMTQSPLSLPVTPGEPASISCQASESLVHSNRNTYLHWYLQKPGQSPQLLIYKVSNRFSGVPDRFSGSGSGTDFTLKISRVEAEDVGVYYCSQNTHVPPTFGQGTKVEIERTVAAPSVFIFPPSDEQLKSGTASVVCLLNNFYPREAKVQWKVDNALQSGNSQESVTEQDSKDSTYSLSSTLTLSKADYEKHKVYACEVTHQGLSSPVTKSFNRGEC
# notes: Heterodimerized IgG1; mutation only in the GpH7-B3 chain; also called He Ab
# B2: GpH7-A5/GpH7-B3 variant D270_18N/GpL16-k0 (antibody, human IgG1, kappa)
# heavy 1: not shown
# heavy 2: not shown
# light: B1 light
# notes: as for B1
# B3: GpH7-A5/GpH7-B3 variant D270_10E/GpL16-k0 (antibody, human IgG1, kappa)
# heavy 1: not shown
# heavy 2: not shown
# light: B1 light
# notes: as for B1
# B4: GpH7-A5/GpH7-B3 variant D265_20W/GpL16-k0 (antibody, human IgG1, kappa)
# heavy 1: not shown
# heavy 2: not shown
# light: B1 light
# notes: heterodimerized antibody, mutation in the GpH7-B3 chain only; also called He Ab
# B5: GpH7-A5/GpH7-B3 variant D270_20W/GpL16-k0 (antibody, human IgG1, kappa)
# heavy 1: not shown
# heavy 2: not shown
# light: B1 light
# notes: as for B1
# B6: GpH7-A5/GpH7-B3 variant D270_02A/GpL16-k0 (antibody, human IgG1, kappa)
# heavy 1: not shown
# heavy 2: not shown
# light: B1 light
# notes: as for B1
# B7: GpH7-A5/GpH7-B3 variant S337_10E/GpL16-k0 (antibody, human IgG1, kappa)
# heavy 1: not shown
# heavy 2: not shown
# light: B1 light
# notes: heterodimerized IgG1, mutation in one H chain only; also called He Ab
# B8: GpH7-A5/GpH7-B3 variant D270_16H/GpL16-k0 (antibody, human IgG1, kappa)
# heavy 1: not shown
# heavy 2: not shown
# light: B1 light
# notes: as for B1
# B9: GpH7-A5/GpH7-B3 variant E269_02A/GpL16-k0 (antibody, human IgG1, kappa)
# heavy 1: not shown
# heavy 2: not shown
# light: B1 light
# notes: as for B1
# B10: GpH7-A5/GpH7-B3 variant T335_07I/GpL16-k0 (antibody, human IgG1, kappa)
# heavy 1: not shown
# heavy 2: not shown
# light: B1 light
# notes: as for B7
# B11: GpH7-A5/GpH7-B3 variant D270_03V/GpL16-k0 (antibody, human IgG1, kappa)
# heavy 1: not shown
# heavy 2: not shown
# light: B1 light
# notes: as for B1
# B12: GpH7-A5/GpH7-B3 variant D270_14T/GpL16-k0 (antibody, human IgG1, kappa)
# heavy 1: not shown
# heavy 2: not shown
# light: B1 light
# notes: as for B1
# B13: GpH7-A5/GpH7-B3 variant E269_04F/GpL16-k0 (antibody, human IgG1, kappa)
# heavy 1: not shown
# heavy 2: not shown
# light: B1 light
# notes: as for B1
# B14: GpH7-A5/GpH7-B3 variant E269_11K/GpL16-k0 (antibody, human IgG1, kappa)
# heavy 1: not shown
# heavy 2: not shown
# light: B1 light
# notes: as for B1
# B15: GpH7-A5/GpH7-B3 variant S337_18N/GpL16-k0 (antibody, human IgG1, kappa)
# heavy 1: not shown
# heavy 2: not shown
# light: B1 light
# notes: as for B7
# B16: GpH7-A5/GpH7-B3 variant Q295_14T/GpL16-k0 (antibody, human IgG1, kappa)
# heavy 1: not shown
# heavy 2: not shown
# light: B1 light
# notes: as for B7
# B17: GpH7-A5/GpH7-B3 variant E269_08L/GpL16-k0 (antibody, human IgG1, kappa)
# heavy 1: not shown
# heavy 2: not shown
# light: B1 light
# notes: as for B1
# B18: GpH7-A5/GpH7-B3 variant S298_14T/GpL16-k0 (antibody, human IgG1, kappa)
# heavy 1: not shown
# heavy 2: not shown
# light: B1 light
# notes: as for B7
# B19: GpH7-A5/GpH7-B3 variant D270_13S/GpL16-k0 (antibody, human IgG1, kappa)
# heavy 1: not shown
# heavy 2: not shown
# light: B1 light
# notes: as for B1
# What was measured:
# [1] = molecular target: T1, FcγRIIa H (FcγRIIa, type H allotype, …); experiment: SPR (Biacore), captured antibody, FcγR as analyte
# [2] = molecular target: T2, FcγRIIb, extracellular domain with …; experiment: SPR (Biacore), captured antibody, FcγR as analyte
# [3] = molecular target: T1, FcγRIIa H (FcγRIIa, type H allotype, …); experiment: ratio of He/Con_2aH to He/Con_2b (FcγRIIa H over FcγRIIb), SPR
# [4] = molecular target: T3, FcγRIIb; experiment: SPR (Biacore), antibody captured, FcγR as analyte; relative binding
# Experimental: The heterodimerized antibodies He Abs in which one of the H chains was introduced with an alteration were assayed for their binding activities to each activating FcγR and inhibitory FcγR according to the method described in Example 4. […] The activating FcγRs in FIGS. 26, 27, 28, and 29 are FcγRIa, FcγRIIa (R), FcγRIIa (H), and FcγRIIIa, respectively.
# Analysis of interaction between objective antibody and the FcγR was carried out using Biacore T100 (GE Healthcare). HBS-EP+ (GE Healthcare) was used as the running buffer, and the measurement temperature was set to 25° C. Chips produced by immobilizing the antigen peptide by the amine coupling method to a Series S Sencor Chip CM5 (GE Healthcare), or alternatively, chips produced by allowing preliminarily biotinylated antigen peptides to interact with and immobilize onto a Series S Sensor Chip SA (certified) (GE Healthcare) were used. Antibodies of interest were captured onto an antigen peptide-immobilized chip, and allowed to interact to each FcγR diluted with running buffer. To regenerate and repeatedly use the chip, the antibodies captured on the chip were washed off by reacting 10 mM glycine-HCl, pH 1.5.
# [5] = molecular target: T4, FcγRIIIa extracellular domain with C-terminal His tag (human, UniProt P08637 17-208); experiment: SPR, relative to GpH7-A5/GpH7-B3/GpL16-k0
# T4 construct: extracellular domain; also called FcgRIIIa; 3a
# T4 sequence (P08637 17-208): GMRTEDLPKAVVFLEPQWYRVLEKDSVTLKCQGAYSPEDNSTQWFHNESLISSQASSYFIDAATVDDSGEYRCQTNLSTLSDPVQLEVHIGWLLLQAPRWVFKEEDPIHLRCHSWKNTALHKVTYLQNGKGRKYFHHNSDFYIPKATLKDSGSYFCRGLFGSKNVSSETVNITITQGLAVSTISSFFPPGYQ
Binder,He/Con_2aH [1],He/Con_2b [2],He_2aH/2b (IIaH/IIb) [3],He/Con_2b (IIb binding) [4],He/Con_3a [5]
B1,"66.6 relative, GpH7-A5/GpH7-B3/GpL16-k0 = 100","43.9 relative, GpH7-A5/GpH7-B3/GpL16-k0 = 100",1.52,,
B2,"62.5 relative, GpH7-A5/GpH7-B3/GpL16-k0 = 100","40.3 relative, GpH7-A5/GpH7-B3/GpL16-k0 = 100",1.55,,
B3,"102 relative, GpH7-A5/GpH7-B3/GpL16-k0 = 100","76.5 relative, GpH7-A5/GpH7-B3/GpL16-k0 = 100",1.34,,
B4,,,,1.1 % of GpH7-A5/GpH7-B3/GpL16-k0 (=100),
B5,"60.2 relative, GpH7-A5/GpH7-B3/GpL16-k0 = 100","34.7 relative, GpH7-A5/GpH7-B3/GpL16-k0 = 100",1.74,,
B6,"76.4 relative, GpH7-A5/GpH7-B3/GpL16-k0 = 100","48.3 relative, GpH7-A5/GpH7-B3/GpL16-k0 = 100",1.58,,
B7,,,,,105 % of control (=100)
B8,"71.5 relative, GpH7-A5/GpH7-B3/GpL16-k0 = 100","47.2 relative, GpH7-A5/GpH7-B3/GpL16-k0 = 100",1.51,,
B9,"77.8 relative, GpH7-A5/GpH7-B3/GpL16-k0 = 100","49.9 relative, GpH7-A5/GpH7-B3/GpL16-k0 = 100",1.56,,
B10,,,,,107 % of control (=100)
B11,"61.8 relative, GpH7-A5/GpH7-B3/GpL16-k0 = 100","39.5 relative, GpH7-A5/GpH7-B3/GpL16-k0 = 100",1.56,,
B12,"75.3 relative, GpH7-A5/GpH7-B3/GpL16-k0 = 100","57.8 relative, GpH7-A5/GpH7-B3/GpL16-k0 = 100",1.3,,
B13,"68.5 relative, GpH7-A5/GpH7-B3/GpL16-k0 = 100","45 relative, GpH7-A5/GpH7-B3/GpL16-k0 = 100",1.52,,
B14,"51.1 relative, GpH7-A5/GpH7-B3/GpL16-k0 = 100","17.8 relative, GpH7-A5/GpH7-B3/GpL16-k0 = 100",2.87,,
B15,,,,,104 % of control (=100)
B16,,,,,115 % of control (=100)
B17,"67.4 relative, GpH7-A5/GpH7-B3/GpL16-k0 = 100","42.9 relative, GpH7-A5/GpH7-B3/GpL16-k0 = 100",1.57,,
B18,,,,,113 % of control (=100)
B19,"71.2 relative, GpH7-A5/GpH7-B3/GpL16-k0 = 100","44.2 relative, GpH7-A5/GpH7-B3/GpL16-k0 = 100",1.61,,
